Reference: US20230055566A1

Assays:
[1] = biological target: recombinant human FGFR1b-Fc (human) (UniProt P11362); assay: SPR (Biacore T200), hFGFR1b-Fc amine-coupled on CM5 chip, antibody as analyte
[2] = biological target: recombinant human FGFR1b-Fc (human) (UniProt P11362); assay: SPR (Biacore), hFGFR1b-Fc immobilized on CM5 chip, antibody injected at 0-200 nM
[3] = biological target: human FGFR2b (beta)-Fc (human) (UniProt P21802); assay: SPR (Biacore), hFGFR2b-Fc immobilized on CM5 chip, antibody injected at 0-200 nM
[4] = biological target: human FGFR2b on engineered Ba/F3 cells (Ba/F3-FGFR2b) (human), P21802; assay: cell-based or functional assay
Chain of human FGFR2b on engineered Ba/F3 cells (Ba/F3-FGFR2b) (human), P21802 (P21802 22-821, change not shown): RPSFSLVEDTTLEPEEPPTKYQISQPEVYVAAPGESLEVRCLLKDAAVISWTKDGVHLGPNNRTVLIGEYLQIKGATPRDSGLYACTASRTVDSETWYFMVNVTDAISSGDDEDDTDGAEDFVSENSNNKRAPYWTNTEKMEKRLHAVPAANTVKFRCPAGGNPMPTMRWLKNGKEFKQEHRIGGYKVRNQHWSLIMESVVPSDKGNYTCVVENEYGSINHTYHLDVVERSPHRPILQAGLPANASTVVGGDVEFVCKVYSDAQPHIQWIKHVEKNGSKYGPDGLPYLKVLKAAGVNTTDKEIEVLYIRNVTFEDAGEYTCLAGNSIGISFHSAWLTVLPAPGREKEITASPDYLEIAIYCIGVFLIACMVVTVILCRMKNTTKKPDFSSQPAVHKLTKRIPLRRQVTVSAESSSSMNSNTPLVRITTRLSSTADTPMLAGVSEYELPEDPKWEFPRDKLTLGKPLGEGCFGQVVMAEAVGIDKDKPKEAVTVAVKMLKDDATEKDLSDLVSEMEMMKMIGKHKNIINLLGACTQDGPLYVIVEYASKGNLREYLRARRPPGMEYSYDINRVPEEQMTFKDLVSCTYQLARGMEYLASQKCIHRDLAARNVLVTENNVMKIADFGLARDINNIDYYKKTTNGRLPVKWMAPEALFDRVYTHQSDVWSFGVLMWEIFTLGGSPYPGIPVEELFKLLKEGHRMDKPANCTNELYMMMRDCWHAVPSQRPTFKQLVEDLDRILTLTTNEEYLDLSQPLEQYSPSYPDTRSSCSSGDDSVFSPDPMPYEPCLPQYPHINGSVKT

[5] = biological target: endogenous FGFR2b on the cell membrane of human gastric cancer cells (KATOIII, SNU16) (human) (UniProt P21802); assay: flow cytometry on FGFR2b expressing KATOIII cells
[6] = biological target: recombinant human FGFR2b-Fc (murine Fc) (human) (UniProt P21802); assay: ELISA, plate coated with human FGFR2b-Fc, anti-human IgG HRP
[7] = biological target: human FGFR2b (beta)-Fc (human) (UniProt P21802); assay: ELISA, plate coated with HuFGFR2b

Chain of recombinant human FGFR1b-Fc (human) (P11362 other isoform, or with tags, fused parts or gaps): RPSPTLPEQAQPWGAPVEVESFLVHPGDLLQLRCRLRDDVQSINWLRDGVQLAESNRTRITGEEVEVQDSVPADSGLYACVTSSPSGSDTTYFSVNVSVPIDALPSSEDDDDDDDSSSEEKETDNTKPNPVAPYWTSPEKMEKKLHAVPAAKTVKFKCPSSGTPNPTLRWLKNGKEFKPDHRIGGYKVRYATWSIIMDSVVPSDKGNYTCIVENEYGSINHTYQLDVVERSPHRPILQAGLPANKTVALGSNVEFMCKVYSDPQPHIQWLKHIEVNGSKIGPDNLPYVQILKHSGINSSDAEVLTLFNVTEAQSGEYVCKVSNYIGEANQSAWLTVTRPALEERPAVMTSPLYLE

Kd [3] [nM]	koff [3] [s⁻¹]	kon [3] [M⁻¹ s⁻¹]	Binder	other results
			FPA144 (antibody, INN chains, looked up, V domains shown) VH: QVQLVQSGAEVKKPGSSVKVSCKASGYIFTTYNVHWVRQAPGQGLEWIGSIYPDNGDTSYNQNFKGRATITADKSTSTAYMELSSLRSEDTAVYYCARGDFAYWGQGTLVTVSS VL: DIQMTQSPSSLSASVGDRVTITCKASQGVSNDVAWYQQKPGKAPKLLIYSASYRYTGVPSRFSGSGSGTDFTFTISSLQPEDIATYYCQQHSTTPYTFGQGTKLEIK	Kd [1]: 225 nM; koff [2]: 0.00746 s⁻¹; kon [2]: 33200 M⁻¹ s⁻¹
0.482	5.58e-05	116000	Ab hu21-26 (antibody, human IgG1, V domains shown) VH: EVQLVQSGAEVKKPGASVKVSCKASGYTFTNYWMHWVRQAPGQGLEWMGAIYPENRDINYNQKFKGRVTLTRDTSISTAYMELSRLRSDDTAVYYCTSRGDYWGQGTTVTVSS VL: AIQLTQSPSSLSASVGDRVTITCSASSGLSYMSWYQQKPGKAPKLLIYDTSNLASGVPSRFSGSGSGTDFTLTISSLQPEDFATYYCQQWSSYPYTFGQGTKLEIK	
0.25	2.45e-05	98000	Ab hu21-21 (antibody, V domains shown) VH: EVQLVQSGAEVKKPGASVKVSCKASGYTFTNYWMHWVRQAPGQGLEWMGAIYPENGDINYNQKFKGRVTLTRDTSISTAYMELSRLRSDDTAVYYCTSRGDYWGQGTTVTVSS VL: AIQLTQSPSSLSASVGDRVTITCSASSGLSYMSWYQQKPGKAPKLLIYDTSNLASGVPSRFSGSGSGTDFTLTISSLQPEDFATYYCQQWSSYPYTFGQGTKLEIK	
0.269	2.46e-05	91300	Ab 21c (antibody, V domains shown) VH: EVQLHQSGTVLARPGASVKMSCKTSGYTFTNYWMHWIKQRPGQGLEWIGAIYPENGDINYNQKFKGKAKLTAVTSASTAYMDLSSLTNEDSAVYYCTSRGDYWGQGTTLTVSS VL: QIVLTQSPAIMSASPGEKVTMTCSASSGLSYMSWYQQKPGSSPRLLIYDTSNLASGVPVRFSGSGSGTSYSLTISRMEAEDAATYYCQQWSSYPYTFGGGTKLEIK	GI50, inhibition of FGF7-induced BaF3 cell proliferation (MTS, 72 hours) [4]: 10 nM; EC50 [5]: 8 nM; EC50 (read off the curve) [6]: 0.4 nM
			Ab 21 (antibody, V domains shown) VH: EVQLHQSGTVLARPGASVKMSCKTSGYTFTNYWMHWIKQRPGQGLEWIGAIYPENGDINYNQKFKGKAKLTAVTSASTAYMDLSSLTNEDSAVYYCTSRGDYWGQGTTLTVSS VL: QIVLTQSPAIMSASPGEKVTMTCSASSGLSYMSWYQQKPGSSPRLLIYDTSNLASGVPVRFSGSGSGTSYSLTISRMEAEDAATYYCQQWSSYPYTFGGGTKLEIK	EC50 (read off the curve) [7]: 0.4 nM
